Target: lysozyme (chicken (egg white), UniProt P00698 19-147)
Test: single-molecule FRET (aptamer displacement); H1 helper strand 1 uM, 10 mM Mg2+; detection limit 30 nM, dynamic range to ~2 uM (not a Kd); 1x TAE-Mg: 40 mM Tris, 20 mM acetic acid, 1 mM EDTA, 10 mM Mg2+, pH 7.4; 1 uM H1 in imaging solution; temperature not stated
Settings: protein: commercial; label: 3' Cy3 on Cy3 strand; 5' Cy5 on Cy5 strand; partially double-stranded multi-strand assembly; 15 nt of aptamer strand (6 extension + 9 aptamer) paired with B1; lysozyme displaces the aptamer strand

Chain of lysozyme (P00698 19-147): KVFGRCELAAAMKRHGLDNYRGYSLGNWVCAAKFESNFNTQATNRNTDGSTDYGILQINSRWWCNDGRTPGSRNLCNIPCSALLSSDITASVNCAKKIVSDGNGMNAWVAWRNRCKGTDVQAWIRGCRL

B1: lysozyme aptasensor (aptamer annealed to B1, Cy5, top and Cy3 strands) (mixed)
DNA 1: ACTGTCATCAGGGCTAAAGAGTGCAGAGTTACTTAG
DNA 2: AGCCCTGATGACAGTAATATAATTCTATA
DNA 3: TATAGAATTATATTATATTACGAGTAGTGAGTTCCA
DNA 4: ATCAGAAGCTCTC
DNA 5: TGGAACTCACTACTCGATTAGTGTATGACCTCTATATGAGAGCTTCTGAT
modifications: 5' biotin-TEG on Cy3 strand
B1: binds.
